Results on 21 molecules are retold here after patent publication EP2974737A1.

B1: SEQ ID NO: 43 (VHH)
chain: DVQLVESGGGLVQPGGSLRLSCAASGFILDYYAIGWFRQAPGKEREGVLCIDASDDITYYADSVKGRFTISRDNSKNTVYLQMNSLRPEDTAVYYCATPIGLSSSCLLEYDYDYWGQGTLVTVSSGGGGSGGGSEVQLLESGGGLVQPGGSLRLSCAASGFTFRSFGMSWVRQAPGKGPEWVSSISGSGSDTLYADSVKGRFTISRDNSKNTLYLQMNSLRPEDTAVYYCTIGGSLSRSSQGTLVTVSSA
B2: SEQ ID NO: 47 (VHH)
VHH: EVQLVESGGGLVQPGGSLRLSCAASGSVFKINVMAWYRQAPGKGRELVAGIISGGSTSYADSVKGRFTISRDNAKNTLYLQMNSLRPEDTAVYYCAFITTESDYDLGRRYWGQGTLVTVSS
B3: SEQ ID NO: 85 (VHH)
VHH: EVQLVESGGGSVQPGGSLRLSCAASRSIGRLDRMGWYRHRPGEPRELVATITGGSSINYGDSVKGRFTISIDNSKNTVYLQMNSLRPEDTAVYYCNFNKYVTSRDTWGQGTLVQVGG
B4: SEQ ID NO: 48 (VHH)
VHH: EVQLVESGGGLVQPGGSLRLSCIASGLPFSTKSMGWFRQAPGKEREFVARISPGGTSRYYGDFVKGRFAISRDNAKNTTWLQMNSLKAEDTAVYYCASGERSTYIGSNYYRTNEYDYWGTGTQVTVSS
B5: SEQ ID NO: 49 (VHH)
VHH: EVQLLESGGGLVQPGGSLRLSCAASGLPFSTKSMGWFRQAPGKGREFVSRISPGGTSRYYGDFVKGRFTISRDNSKNTLYLQMNSLRAEDTAVYYCASGERSTYIGSNYYRTNEYDYWGQGTLVTVSS
B6: SEQ ID NO: 45 (VHH)
VHH: EVQLVESGGGLVQAGGSLRLSCAASRSIGRLDRMGWYRHRTGEPRELVATITGGSSINYGDFVKGRFTISIDNAKNTVYLQMNNLKPEDTAVYYCNFNKYVTSRDTWGQGTQVTVSS
B7: SEQ ID NO: 84 (VHH)
VHH: EVQLVESGGGLVQPGGSLRLSCAASRSIGRLDRMGWYRHRPGEPRELVATITGGSSINYGDSVKGRFTISIDNSKNTVYLQMNSLRPEDTAVYYCNFNKYVTSRDTWGQGTLVTVGS
B8: SEQ ID NO: 83 (VHH)
VHH: EVQLVESGGGLVQPGGSLRLSCAASRSIGRLDRMGWYRHRPGEPRELVATITGGSSINYGDSVKGRFTISIDNSKNTVYLQMNSLRPEDAAVYYCNFNKYVTSRDTWGQGTLVTVSS
B9: SEQ ID NO: 69 (VHH)
VHH: EVQLVESGGGLVQPGGSLRLSCAASRSIGRLDRMGWYRHRPGEPRELVATITGGSSINYGDSVKGRFTISIDNSKNTVYLQMNSLRPEDTAVYYCNFNKYVTSRDTWGQGTQVTVSS
B10: SEQ ID NO: 81 (VHH)
VHH: EVQLVESGGGVVQPGGSLRLSCAASRSIGRLDRMGWYRHRPGEPRELVATITGGSSINYGDSVKGRFTISIDNSKNTVYLQMNSLRPEDTAVYYCNFNKYVTSRDTWGQGTLVTVSS
B11: SEQ ID NO: 87 (VHH)
VHH: EVQLVESGGGSVQPGGSLRLSCAASRSIGRLDRMGWYRHRPGEPRELVATITGGSSINYGDSVKGRFTISIDNSKNTVYLQMNSLRPEDTAVYYCNFNKYVTSRDTWGQGTLVTVGG
B12: SEQ ID NO: 80 (VHH)
VHH: EVQLVESGGGLVQPGGSLRLSCAASRSIGRLDRMGWYRHRPGEPRELVATITGGSSINYGDSVKGRFTISIDNSKNTVYLQMNSLRPEDTAVYYCNFNKYVTSRDTWGQGTLVQVGG
B13: SEQ ID NO: 70 (VHH)
VHH: EVQLVESGGGLVQPGGSLRLSCAASRSIGRLDRMGWYRHRPGEPRELVATITGGSSINYGDSVKGRFTISIDNSKNTVYLQMNSLRPEDTAVYYCNFNKYVTSRDTWGQGTLVQVSS
B14: SEQ ID NO: 82 (VHH)
VHH: EVQLVESGGGLVQPGGSLRLSCAASRSIGRLDRMGWYRHRPGEPRELVATITGGSSINYGDSVKGRFTISIDNSKNTVYLQMNSLRAEDTAVYYCNFNKYVTSRDTWGQGTLVTVSS
B15: SEQ ID NO: 66 (VHH)
VHH: EVQLVESGGGSVQPGGSLRLSCAASRSIGRLDRMGWYRHRPGEPRELVATITGGSSINYGDSVKGRFTISIDNSKNTVYLQMNSLRPEDTAVYYCNFNKYVTSRDTWGQGTLVTVSS
B16: SEQ ID NO: 65 (VHH)
VHH: EVQLVESGGGLVQAGGSLRLSCAASRSIGRLDRMGWYRHRPGEPRELVATITGGSSINYGDSVKGRFTISIDNSKNTVYLQMNSLRPEDTAVYYCNFNKYVTSRDTWGQGTLVTVSS
B17: SEQ ID NO: 89 (VHH)
VHH: EVQLVESGGGSVQAGGSLRLSCAASRSIGRLDRMGWYRHRPGEPRELVATITGGSSINYGDSVKGRFTISIDNSKNTVYLQMNSLRPEDTAVYYCNFNKYVTSRDTWGQGTLVQVGG
B18: SEQ ID NO: 68 (VHH)
VHH: EVQLVESGGGLVQAGGSLRLSCAASRSIGRLDRMGWYRHRPGEPRELVATITGGSSINYGDSVKGRFTISIDNSKNTVYLQMNSLRPEDTAVYYCNFNKYVTSRDTWGQGTQVTVSS
B19: SEQ ID NO: 78 (VHH)
VHH: EVQLVESGGGLVRPGGSLRLSCAASRSIGRLDRMGWYRHRPGEPRELVATITGGSSINYGDSVKGRFTISIDNSKNTVYLQMNSLRPEDTAVYYCNFNKYVTSRDTWGQGTLVTVSS
B20: SEQ ID NO: 71 (VHH)
VHH: EVQLVESGGGLVQPGGSLRLSCAASRSIGRLDRMGWYRHRPGEPRELVATITGGSSINYGDSVKGRFTISIDNSKNTVYLQMNSLRPEDTAVYYCNFNKYVTSRDTWGQGTLVTVSG
B21: SEQ ID NO: 67 (VHH)
VHH: EVQLVESGGGLVQPGGSLRLSCAASRSIGRLDRMGWYRHRPGEPRELVATITGGSSINYGDSVKGRFTISIDNSKNTVYLQMNSLKPEDTAVYYCNFNKYVTSRDTWGQGTLVTVSS

Sequence of monoclonal antibody 21-4-3 (VH, as listed by the source, form in doubt, chain 1 of 2): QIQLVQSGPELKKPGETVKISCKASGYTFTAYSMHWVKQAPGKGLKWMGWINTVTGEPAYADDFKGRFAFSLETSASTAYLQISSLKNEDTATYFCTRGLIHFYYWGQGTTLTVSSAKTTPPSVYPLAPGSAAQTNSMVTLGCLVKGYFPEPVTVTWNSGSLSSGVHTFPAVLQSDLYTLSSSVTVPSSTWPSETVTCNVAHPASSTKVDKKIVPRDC
Sequence of monoclonal antibody 21-4-3 (VL, as listed by the source, form in doubt, chain 2 of 2): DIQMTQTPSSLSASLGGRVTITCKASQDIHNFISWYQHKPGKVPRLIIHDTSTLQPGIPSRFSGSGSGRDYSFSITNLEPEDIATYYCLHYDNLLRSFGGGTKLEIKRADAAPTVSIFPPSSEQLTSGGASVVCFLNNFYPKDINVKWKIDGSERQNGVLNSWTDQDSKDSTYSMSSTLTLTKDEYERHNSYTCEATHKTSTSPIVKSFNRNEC

The experiment concerns the target monoclonal antibody 21-4-3. Nature of the experiment: SPR, captured 21-4-3, 500 nM; % of Fig. 9 reference. (In general: SPR reads the build-up and loss of mass on a sensor chip optically.)
Consider B1, for which the binding of 21-4-3, % of Reference Sequence stood at 3%. The molecule B2 yielded a binding of 21-4-3, % of Reference Sequence of 4%. The figure for B3 is 32%; for B4 it is 3%. For the molecule B5, the binding of 21-4-3, % of Reference Sequence amounted to 4%. B6 registered a binding of 21-4-3, % of Reference Sequence of 22%.

B7 registered a binding of 21-4-3, % of Reference Sequence of 91%. Regarding B8, the binding of 21-4-3, % of Reference Sequence came to 79%. B9: the binding of 21-4-3, % of Reference Sequence came to 106%.

Turning to B10, the binding of 21-4-3, % of Reference Sequence was found to be 75%. The molecule B11 displayed a binding of 21-4-3, % of Reference Sequence of 41%. For the molecule B12, the binding of 21-4-3, % of Reference Sequence was 51%. B13 yielded a binding of 21-4-3, % of Reference Sequence of 106%. B14: the binding of 21-4-3, % of Reference Sequence came out at 56%. The figure for B15 is 48%; for B16 it is 23%; for B17 it is 2%.

In turn, B18 came in with a binding of 21-4-3, % of Reference Sequence of 26%. Turning to B19, the binding of 21-4-3, % of Reference Sequence is 1%. Take B20: the binding of 21-4-3, % of Reference Sequence was found to be 44%.

For the molecule B21, the binding of 21-4-3, % of Reference Sequence came to 101%.
